# ± gives the uncertainty stated by the source.
# B1: Dystrobrevin alpha, residues 235 to 294; numbered along this chain, Q9Y4J8 (parent)
# chain: ENVFHPVECSYCHSESMMGFRYRCQQCHNYQLCQDCFWRGHAGGSHSNQHQMKEYTSWKS
# Variants of: B1
# Test: abundance fitness (aPCA) (normalised: wild type 0, dead -1); higher = more abundant; growth selection in yeast, the domain comes from the species named
# Settings: Homo sapiens
row,Variant,abundance fitness
1,ENVFHPVECSYCHSESMMGFRYRCKQCHNYQLCQDCFWRGHAGGSHSNQHQMKEYTSWKS,-0.003 ± 0.066
2,ENVFHPVECSYCHSESMMGFRYRCLQCHNYQLCQDCFWRGHAGGSHSNQHQMKEYTSWKS,-0.026 ± 0.053
3,ENVFHPVECSYCHSESMMGFRYRCMQCHNYQLCQDCFWRGHAGGSHSNQHQMKEYTSWKS,0.061 ± 0.091
4,ENVFHPVECSYCHSESMMGFRYRCNQCHNYQLCQDCFWRGHAGGSHSNQHQMKEYTSWKS,-0.128 ± 0.095
5,ENVFHPVECSYCHSESMMGFRYRCPQCHNYQLCQDCFWRGHAGGSHSNQHQMKEYTSWKS,-0.426 ± 0.078
6,ENVFHPVECSYCHSESMMGFRYRCRQCHNYQLCQDCFWRGHAGGSHSNQHQMKEYTSWKS,-0.158 ± 0.052
7,ENVFHPVECSYCHSESMMGFRYRCSQCHNYQLCQDCFWRGHAGGSHSNQHQMKEYTSWKS,-0.159 ± 0.042
8,ENVFHPVECSYCHSESMMGFRYRCTQCHNYQLCQDCFWRGHAGGSHSNQHQMKEYTSWKS,-0.004 ± 0.072
9,ENVFHPVECSYCHSESMMGFRYRCVQCHNYQLCQDCFWRGHAGGSHSNQHQMKEYTSWKS,0.019 ± 0.048
10,ENVFHPVECSYCHSESMMGFRYRCWQCHNYQLCQDCFWRGHAGGSHSNQHQMKEYTSWKS,-0.662 ± 0.11
11,ENVFHPVECSYCHSESMMGFRYRCYQCHNYQLCQDCFWRGHAGGSHSNQHQMKEYTSWKS,-0.327 ± 0.087
12,ENVFHPVECSYCHSESMMGFRYRCQACHNYQLCQDCFWRGHAGGSHSNQHQMKEYTSWKS,0.006 ± 0.079
13,ENVFHPVECSYCHSESMMGFRYRCQCCHNYQLCQDCFWRGHAGGSHSNQHQMKEYTSWKS,-0.301 ± 0.11
14,ENVFHPVECSYCHSESMMGFRYRCQDCHNYQLCQDCFWRGHAGGSHSNQHQMKEYTSWKS,0.341 ± 0.085
15,ENVFHPVECSYCHSESMMGFRYRCQECHNYQLCQDCFWRGHAGGSHSNQHQMKEYTSWKS,-0.058 ± 0.083
16,ENVFHPVECSYCHSESMMGFRYRCQFCHNYQLCQDCFWRGHAGGSHSNQHQMKEYTSWKS,-0.283 ± 0.2
17,ENVFHPVECSYCHSESMMGFRYRCQGCHNYQLCQDCFWRGHAGGSHSNQHQMKEYTSWKS,-0.277 ± 0.058
18,ENVFHPVECSYCHSESMMGFRYRCQHCHNYQLCQDCFWRGHAGGSHSNQHQMKEYTSWKS,-0.315 ± 0.093
19,ENVFHPVECSYCHSESMMGFRYRCQICHNYQLCQDCFWRGHAGGSHSNQHQMKEYTSWKS,0.011 ± 0.091
20,ENVFHPVECSYCHSESMMGFRYRCQKCHNYQLCQDCFWRGHAGGSHSNQHQMKEYTSWKS,-0.288 ± 0.13
21,ENVFHPVECSYCHSESMMGFRYRCQLCHNYQLCQDCFWRGHAGGSHSNQHQMKEYTSWKS,-0.287 ± 0.087
22,ENVFHPVECSYCHSESMMGFRYRCQMCHNYQLCQDCFWRGHAGGSHSNQHQMKEYTSWKS,-0.355 ± 0.086
23,ENVFHPVECSYCHSESMMGFRYRCQNCHNYQLCQDCFWRGHAGGSHSNQHQMKEYTSWKS,0.022 ± 0.065

row,Variant,abundance fitness
1,ENVFHPVECSYCHSESMMGFRYRCQPCHNYQLCQDCFWRGHAGGSHSNQHQMKEYTSWKS,-0.545 ± 0.11
2,ENVFHPVECSYCHSESMMGFRYRCQRCHNYQLCQDCFWRGHAGGSHSNQHQMKEYTSWKS,-0.232 ± 0.05
3,ENVFHPVECSYCHSESMMGFRYRCQSCHNYQLCQDCFWRGHAGGSHSNQHQMKEYTSWKS,-0.024 ± 0.054
4,ENVFHPVECSYCHSESMMGFRYRCQTCHNYQLCQDCFWRGHAGGSHSNQHQMKEYTSWKS,0.012 ± 0.088
5,ENVFHPVECSYCHSESMMGFRYRCQVCHNYQLCQDCFWRGHAGGSHSNQHQMKEYTSWKS,0.273 ± 0.081
6,ENVFHPVECSYCHSESMMGFRYRCQWCHNYQLCQDCFWRGHAGGSHSNQHQMKEYTSWKS,-0.498 ± 0.1
7,ENVFHPVECSYCHSESMMGFRYRCQQAHNYQLCQDCFWRGHAGGSHSNQHQMKEYTSWKS,-0.727 ± 0.068
8,ENVFHPVECSYCHSESMMGFRYRCQQDHNYQLCQDCFWRGHAGGSHSNQHQMKEYTSWKS,-0.667 ± 0.13
9,ENVFHPVECSYCHSESMMGFRYRCQQEHNYQLCQDCFWRGHAGGSHSNQHQMKEYTSWKS,-0.717 ± 0.089
10,ENVFHPVECSYCHSESMMGFRYRCQQFHNYQLCQDCFWRGHAGGSHSNQHQMKEYTSWKS,-0.434 ± 0.17
11,ENVFHPVECSYCHSESMMGFRYRCQQHHNYQLCQDCFWRGHAGGSHSNQHQMKEYTSWKS,-0.814 ± 0.39
12,ENVFHPVECSYCHSESMMGFRYRCQQKHNYQLCQDCFWRGHAGGSHSNQHQMKEYTSWKS,-0.745 ± 0.09
13,ENVFHPVECSYCHSESMMGFRYRCQQLHNYQLCQDCFWRGHAGGSHSNQHQMKEYTSWKS,-0.998 ± 0.14
14,ENVFHPVECSYCHSESMMGFRYRCQQMHNYQLCQDCFWRGHAGGSHSNQHQMKEYTSWKS,-0.814 ± 0.12
15,ENVFHPVECSYCHSESMMGFRYRCQQNHNYQLCQDCFWRGHAGGSHSNQHQMKEYTSWKS,-0.841 ± 0.19
16,ENVFHPVECSYCHSESMMGFRYRCQQPHNYQLCQDCFWRGHAGGSHSNQHQMKEYTSWKS,-0.578 ± 0.15
17,ENVFHPVECSYCHSESMMGFRYRCQQQHNYQLCQDCFWRGHAGGSHSNQHQMKEYTSWKS,-0.943 ± 0.18
18,ENVFHPVECSYCHSESMMGFRYRCQQRHNYQLCQDCFWRGHAGGSHSNQHQMKEYTSWKS,-0.876 ± 0.066
19,ENVFHPVECSYCHSESMMGFRYRCQQTHNYQLCQDCFWRGHAGGSHSNQHQMKEYTSWKS,-0.877 ± 0.12
20,ENVFHPVECSYCHSESMMGFRYRCQQVHNYQLCQDCFWRGHAGGSHSNQHQMKEYTSWKS,-0.85 ± 0.066
21,ENVFHPVECSYCHSESMMGFRYRCQQWHNYQLCQDCFWRGHAGGSHSNQHQMKEYTSWKS,-0.838 ± 0.13
22,ENVFHPVECSYCHSESMMGFRYRCQQCANYQLCQDCFWRGHAGGSHSNQHQMKEYTSWKS,0.145 ± 0.043
23,ENVFHPVECSYCHSESMMGFRYRCQQCCNYQLCQDCFWRGHAGGSHSNQHQMKEYTSWKS,-0.093 ± 0.061

row,Variant,abundance fitness
1,ENVFHPVECSYCHSESMMGFRYRCQQCDNYQLCQDCFWRGHAGGSHSNQHQMKEYTSWKS,0.209 ± 0.053
2,ENVFHPVECSYCHSESMMGFRYRCQQCENYQLCQDCFWRGHAGGSHSNQHQMKEYTSWKS,0.063 ± 0.06
3,ENVFHPVECSYCHSESMMGFRYRCQQCFNYQLCQDCFWRGHAGGSHSNQHQMKEYTSWKS,-0.112 ± 0.065
4,ENVFHPVECSYCHSESMMGFRYRCQQCGNYQLCQDCFWRGHAGGSHSNQHQMKEYTSWKS,-0.1 ± 0.042
5,ENVFHPVECSYCHSESMMGFRYRCQQCINYQLCQDCFWRGHAGGSHSNQHQMKEYTSWKS,0.033 ± 0.062
6,ENVFHPVECSYCHSESMMGFRYRCQQCKNYQLCQDCFWRGHAGGSHSNQHQMKEYTSWKS,0.122 ± 0.063
7,ENVFHPVECSYCHSESMMGFRYRCQQCLNYQLCQDCFWRGHAGGSHSNQHQMKEYTSWKS,0.002 ± 0.046
8,ENVFHPVECSYCHSESMMGFRYRCQQCMNYQLCQDCFWRGHAGGSHSNQHQMKEYTSWKS,-0.008 ± 0.064
9,ENVFHPVECSYCHSESMMGFRYRCQQCNNYQLCQDCFWRGHAGGSHSNQHQMKEYTSWKS,0.152 ± 0.076
10,ENVFHPVECSYCHSESMMGFRYRCQQCPNYQLCQDCFWRGHAGGSHSNQHQMKEYTSWKS,0.066 ± 0.078
11,ENVFHPVECSYCHSESMMGFRYRCQQCRNYQLCQDCFWRGHAGGSHSNQHQMKEYTSWKS,-0.002 ± 0.052
12,ENVFHPVECSYCHSESMMGFRYRCQQCSNYQLCQDCFWRGHAGGSHSNQHQMKEYTSWKS,0.027 ± 0.051
13,ENVFHPVECSYCHSESMMGFRYRCQQCTNYQLCQDCFWRGHAGGSHSNQHQMKEYTSWKS,0.1 ± 0.053
14,ENVFHPVECSYCHSESMMGFRYRCQQCVNYQLCQDCFWRGHAGGSHSNQHQMKEYTSWKS,0.06 ± 0.047
15,ENVFHPVECSYCHSESMMGFRYRCQQCWNYQLCQDCFWRGHAGGSHSNQHQMKEYTSWKS,-0.16 ± 0.082
16,ENVFHPVECSYCHSESMMGFRYRCQQCHAYQLCQDCFWRGHAGGSHSNQHQMKEYTSWKS,-0.028 ± 0.07
17,ENVFHPVECSYCHSESMMGFRYRCQQCHCYQLCQDCFWRGHAGGSHSNQHQMKEYTSWKS,0.186 ± 0.082
18,ENVFHPVECSYCHSESMMGFRYRCQQCHDYQLCQDCFWRGHAGGSHSNQHQMKEYTSWKS,0.052 ± 0.081
19,ENVFHPVECSYCHSESMMGFRYRCQQCHEYQLCQDCFWRGHAGGSHSNQHQMKEYTSWKS,-0.152 ± 0.09
20,ENVFHPVECSYCHSESMMGFRYRCQQCHFYQLCQDCFWRGHAGGSHSNQHQMKEYTSWKS,0.007 ± 0.062
21,ENVFHPVECSYCHSESMMGFRYRCQQCHGYQLCQDCFWRGHAGGSHSNQHQMKEYTSWKS,-0.058 ± 0.047
22,ENVFHPVECSYCHSESMMGFRYRCQQCHHYQLCQDCFWRGHAGGSHSNQHQMKEYTSWKS,-0.075 ± 0.091
23,ENVFHPVECSYCHSESMMGFRYRCQQCHKYQLCQDCFWRGHAGGSHSNQHQMKEYTSWKS,-0.156 ± 0.08

row,Variant,abundance fitness
1,ENVFHPVECSYCHSESMMGFRYRCQQCHLYQLCQDCFWRGHAGGSHSNQHQMKEYTSWKS,-0.125 ± 0.047
2,ENVFHPVECSYCHSESMMGFRYRCQQCHMYQLCQDCFWRGHAGGSHSNQHQMKEYTSWKS,-0.044 ± 0.085
3,ENVFHPVECSYCHSESMMGFRYRCQQCHPYQLCQDCFWRGHAGGSHSNQHQMKEYTSWKS,-0.388 ± 0.063
4,ENVFHPVECSYCHSESMMGFRYRCQQCHQYQLCQDCFWRGHAGGSHSNQHQMKEYTSWKS,0.1 ± 0.074
5,ENVFHPVECSYCHSESMMGFRYRCQQCHRYQLCQDCFWRGHAGGSHSNQHQMKEYTSWKS,-0.171 ± 0.048
6,ENVFHPVECSYCHSESMMGFRYRCQQCHSYQLCQDCFWRGHAGGSHSNQHQMKEYTSWKS,-0.063 ± 0.051
7,ENVFHPVECSYCHSESMMGFRYRCQQCHTYQLCQDCFWRGHAGGSHSNQHQMKEYTSWKS,-0.213 ± 0.065
8,ENVFHPVECSYCHSESMMGFRYRCQQCHVYQLCQDCFWRGHAGGSHSNQHQMKEYTSWKS,-0.281 ± 0.059
9,ENVFHPVECSYCHSESMMGFRYRCQQCHWYQLCQDCFWRGHAGGSHSNQHQMKEYTSWKS,-0.183 ± 0.064
10,ENVFHPVECSYCHSESMMGFRYRCQQCHYYQLCQDCFWRGHAGGSHSNQHQMKEYTSWKS,-0.204 ± 0.084
11,ENVFHPVECSYCHSESMMGFRYRCQQCHNAQLCQDCFWRGHAGGSHSNQHQMKEYTSWKS,-0.398 ± 0.093
12,ENVFHPVECSYCHSESMMGFRYRCQQCHNCQLCQDCFWRGHAGGSHSNQHQMKEYTSWKS,-0.554 ± 0.22
13,ENVFHPVECSYCHSESMMGFRYRCQQCHNDQLCQDCFWRGHAGGSHSNQHQMKEYTSWKS,-0.508 ± 0.1
14,ENVFHPVECSYCHSESMMGFRYRCQQCHNEQLCQDCFWRGHAGGSHSNQHQMKEYTSWKS,-0.378 ± 0.09
15,ENVFHPVECSYCHSESMMGFRYRCQQCHNFQLCQDCFWRGHAGGSHSNQHQMKEYTSWKS,-0.183 ± 0.1
16,ENVFHPVECSYCHSESMMGFRYRCQQCHNGQLCQDCFWRGHAGGSHSNQHQMKEYTSWKS,-0.553 ± 0.043
17,ENVFHPVECSYCHSESMMGFRYRCQQCHNHQLCQDCFWRGHAGGSHSNQHQMKEYTSWKS,-0.53 ± 0.11
18,ENVFHPVECSYCHSESMMGFRYRCQQCHNKQLCQDCFWRGHAGGSHSNQHQMKEYTSWKS,-0.519 ± 0.095
19,ENVFHPVECSYCHSESMMGFRYRCQQCHNLQLCQDCFWRGHAGGSHSNQHQMKEYTSWKS,-0.36 ± 0.059
20,ENVFHPVECSYCHSESMMGFRYRCQQCHNMQLCQDCFWRGHAGGSHSNQHQMKEYTSWKS,-0.288 ± 0.09

# Source: the Human Domainome abundance scans (Beltran et al. 2025)
